Laboratory results: patent publication US20210238292A1 (VACCINEX, published 2021)
Like-named read-outs stand apart in the source and are kept apart here.

Columns and labels:
[1] = target: human CCR8 (C-C chemokine receptor type 8) expressed on cells (human) (UniProt P51685); test: flow cytometry competition on Raji-CCR8 cells; competitor: fluorescently-conjugated BIOLEGEND anti-human CCR8 antibody at a single concentration
[2] = target: T1, human CCR8 (C-C chemokine receptor type 8) expressed on cells (human, UniProt P51685 1-355); test: on-cell affinity, flow cytometry on 293T cells expressing human CCR8
T1 construct: also called HuCCR8

Cynomolgus CCR8-ECD-Fc [3] = target: T2, Cynomolgus CCR8-ECD-Fc (cynomolgus monkey); test: binding to CyCCR8-ECD-huFc protein (so in the source), OD45-570nm (so in the source)
T2 construct: also called CyCCR8-ECD-Fc; Cynomolgus CCR8-Fc
T2 chain: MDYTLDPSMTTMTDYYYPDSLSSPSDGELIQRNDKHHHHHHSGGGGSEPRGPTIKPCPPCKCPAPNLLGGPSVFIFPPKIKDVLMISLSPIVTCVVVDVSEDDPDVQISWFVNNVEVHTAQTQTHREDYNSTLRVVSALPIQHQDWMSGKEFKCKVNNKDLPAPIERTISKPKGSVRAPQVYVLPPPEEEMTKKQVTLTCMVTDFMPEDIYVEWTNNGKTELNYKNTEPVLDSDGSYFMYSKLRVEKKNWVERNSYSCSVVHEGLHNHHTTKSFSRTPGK

Human CCR8-ECD-Fc [4] = target: T3, Human CCR8-ECD-Fc (human); test: binding to HuCCR8-ECD-moFc protein (so in the source), OD45-570nm (so in the source)
T3 construct: also called HuCCR8-ECD-Fc; huCC8-ECD-Fc
T3 chain: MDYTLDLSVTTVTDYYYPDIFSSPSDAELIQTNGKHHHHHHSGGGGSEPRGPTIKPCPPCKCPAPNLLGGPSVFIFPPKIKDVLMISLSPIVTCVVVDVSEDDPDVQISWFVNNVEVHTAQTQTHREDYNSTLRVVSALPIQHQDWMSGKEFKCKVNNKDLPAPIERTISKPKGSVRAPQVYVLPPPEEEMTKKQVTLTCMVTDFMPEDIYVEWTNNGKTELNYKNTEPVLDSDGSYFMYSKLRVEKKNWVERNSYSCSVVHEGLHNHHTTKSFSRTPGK

[5] = target: T4, mouse CCR8 expressed on 293T cells (mouse, UniProt P56484 1-353); test: flow cytometry, mouseCCR8-293T cells, fold geomean over secondary alone
T4 construct: whole, on cells
T4 sequence (looked up): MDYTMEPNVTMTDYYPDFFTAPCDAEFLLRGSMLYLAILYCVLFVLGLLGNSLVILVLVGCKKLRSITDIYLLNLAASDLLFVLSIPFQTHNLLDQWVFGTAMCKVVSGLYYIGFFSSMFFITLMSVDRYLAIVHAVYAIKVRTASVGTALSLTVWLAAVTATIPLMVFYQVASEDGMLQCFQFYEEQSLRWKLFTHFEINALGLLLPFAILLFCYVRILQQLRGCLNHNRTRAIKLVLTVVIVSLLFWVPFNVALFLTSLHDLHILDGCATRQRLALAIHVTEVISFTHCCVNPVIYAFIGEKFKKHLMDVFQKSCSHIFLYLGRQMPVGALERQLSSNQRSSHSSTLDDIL

[6] = target: T5, cynomolgus monkey CCR8 expressed on cells (cynomolgus monkey, UniProt G7NYJ2 1-355); test: on-cell affinity, flow cytometry on 293T cells expressing cyno CCR8
T5 construct: whole, on cells; also called cyno CCR8; CyCCR8
Target sequence in this assay (G7NYJ2 entry or part of it): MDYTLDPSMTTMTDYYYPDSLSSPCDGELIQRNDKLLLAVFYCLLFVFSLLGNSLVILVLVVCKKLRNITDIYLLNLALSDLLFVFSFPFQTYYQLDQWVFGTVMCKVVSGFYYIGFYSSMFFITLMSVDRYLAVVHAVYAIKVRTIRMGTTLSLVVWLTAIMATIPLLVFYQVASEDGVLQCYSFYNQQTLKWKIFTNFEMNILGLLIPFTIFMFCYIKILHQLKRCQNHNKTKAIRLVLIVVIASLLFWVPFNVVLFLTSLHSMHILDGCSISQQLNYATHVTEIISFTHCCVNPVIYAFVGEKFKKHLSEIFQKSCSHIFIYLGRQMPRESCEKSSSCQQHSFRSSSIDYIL

Human CCR8-ECD-Fc [7] = target: T3, Human CCR8-ECD-Fc; test: binding to HuCCR8-ECD-Fc protein, OD 450-570 nm
Cynomolgus CCR8-ECD-Fc [8] = target: T2, Cynomolgus CCR8-ECD-Fc; test: binding to CyCCR8-ECD-Fc protein, OD 450-570 nm
[9] = target: T1, human CCR8 (C-C chemokine receptor type …); test: on-cell affinity, flow cytometry on 293T cells expressing human CCR8; remark: listed apart in the source
[10] = target: T5, cynomolgus monkey CCR8 expressed on …; test: flow cytometry, CyCCR8-293T cells, fold geomean over secondary alone
[11] = target: T1, human CCR8 (C-C chemokine receptor type …); test: flow cytometry, HuCCR8-293T cells, fold geomean over secondary alone
[12] = target: T5, cynomolgus monkey CCR8 expressed on …; test: flow cytometry, CyCCR8-293T cells, fold geomean over secondary alone; remark: listed apart in the source
Cynomolgus CCR8-ECD-Fc [13] = target: T2, Cynomolgus CCR8-ECD-Fc; test: binding to CyCCR8-ECD-Fc protein, OD 450-570 nm
Human CCR8-ECD-Fc [14] = target: T3, Human CCR8-ECD-Fc; test: binding to HuCCR8-ECD-Fc protein, OD 450-570 nm
[15] = target: T1, human CCR8 (C-C chemokine receptor type …); test: flow cytometry, HuCCR8-293T cells, fold geomean over secondary alone; remark: listed apart in the source
[16] = target: T1, human CCR8 (C-C chemokine receptor type …); test: as above; remark: listed apart in the source
Human CCR8-ECD-Fc [17] = target: T3, Human CCR8-ECD-Fc; test: binding to HuCCR8-ECD-Fc protein, OD 450-570 nm
Cynomolgus CCR8-ECD-Fc [18] = target: T2, Cynomolgus CCR8-ECD-Fc; test: binding to CyCCR8-ECD-Fc protein, OD 450-570 nm
Cynomolgus CCR8-ECD-Fc [19] = target: T2, Cynomolgus CCR8-ECD-Fc; test: binding to CyCCR8-ECD-Fc protein, OD 450-570 nm
[20] = target: T1, human CCR8 (C-C chemokine receptor type …); test: flow cytometry, HuCCR8-293T cells, fold geomean over secondary alone; remark: listed apart in the source
Human CCR8-ECD-Fc [21] = target: T3, Human CCR8-ECD-Fc; test: binding to HuCCR8-ECD-Fc protein, OD 450-570 nm
[22] = target: T5, cynomolgus monkey CCR8 expressed on …; test: flow cytometry, CyCCR8-293T cells, fold geomean over secondary alone; remark: listed apart in the source
[23] = target: T1, human CCR8 (C-C chemokine receptor type …); test: flow cytometry, HuCCR8-293T cells, fold geomean over secondary alone; remark: listed apart in the source
[24] = target: T5, cynomolgus monkey CCR8 expressed on …; test: flow cytometry, CyCCR8-293T cells, fold geomean over secondary alone; remark: listed apart in the source
Cynomolgus CCR8-ECD-Fc [25] = target: T2, Cynomolgus CCR8-ECD-Fc; test: binding to CyCCR8-ECD-Fc protein, OD 450-570 nm
Human CCR8-ECD-Fc [26] = target: T3, Human CCR8-ECD-Fc; test: binding to HuCCR8-ECD-Fc protein, OD 450-570 nm

T1 sequence (P51685 whole entry): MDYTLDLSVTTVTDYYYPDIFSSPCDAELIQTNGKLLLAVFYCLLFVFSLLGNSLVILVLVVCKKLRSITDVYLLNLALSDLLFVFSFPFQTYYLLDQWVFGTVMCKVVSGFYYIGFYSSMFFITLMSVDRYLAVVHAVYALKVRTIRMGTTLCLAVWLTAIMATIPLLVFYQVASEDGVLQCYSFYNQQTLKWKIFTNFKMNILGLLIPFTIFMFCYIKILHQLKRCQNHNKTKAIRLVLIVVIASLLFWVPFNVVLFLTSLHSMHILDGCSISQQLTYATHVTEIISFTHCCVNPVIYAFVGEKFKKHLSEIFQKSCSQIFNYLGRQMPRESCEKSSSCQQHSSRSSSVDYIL
human CCR8 (C-C chemokine receptor type 8) expressed on cells (human), sequence (P51685 whole entry): as above

With Biolegend control (antibody) the IC50 (read off the curve) [1] was 0.03 mg/L.

B1: anti-CCR8-parental-1 (antibody, V domains shown)
VH: QVQLVQSGAEVKKPGASVKVSCKASGYTFTSYYMHWVRQAPGQGLEWMGIINPSGGSTSYAQKFQGRVTMTRDTSTSTVYMELSSLRSEDTAVYYCARGVGNGFRFDYWGQGTLVT
VL: QSALTQPASVSGSPGQSITISCTGTSSDVGSYNLVSWYQQHPGKAPKLMIYEVSKRPSGVSNRFSGSKSGNTASLTISGLQAEDEADYYCSSYAGSSTFVVFGGGTKLTVL
notes: Full-length human IgG; also called parental antibody; H23188/L1037
B1 showed a Kd [2] of 1.06 nM.

B2: anti-CCR8-1-3 (antibody, V domains shown)
VH: QVQLVQSGAEVKKPGASVKVSCKASGYTFTSYYMHWVRQAPGQGLEWMGIINPSGGSTSYAQKFQGRVTMTRDTSTSTVYMELSSLRSEDTAVYYCARGVGNGFRFDYWGQGTLVT
VL: QSALTQPPSVSGSPGQSITISCSGTSSDVGIYNLVSWYQQHPGKAPKLIIYEVIKRPSGISNRFSGFKSGNTASLTISGLQAEDEADYYCSSYAGPVTYVVFGGGTKLTVL
notes: Parental-1 heavy chain with a shuffled lambda light chain; Human IgG expressed in CHO cells
With B2 the Kd [2] was 1.38 nM, the binding result (Cynomolgus CCR8-ECD-Fc [3]) was “binds” and the binding result (Human CCR8-ECD-Fc [4]) was “binds”. B2: no binding (tested: 10 ug/ml) [5].

B3: anti-CCR8-2-3 (antibody, V domains shown)
VH: EVQLVESGGGLVQPGRSLRLSCAASGFTFDDYAMHWVRQAPGKGLEWVSGISWNSGSIGYADSVKGRFTISRDNSKNSLYLQMNSLRAEDTALYYCARGRKSYRDSLRFDYWGQGTLVTVSS
VL: QSVLTQPPSVSAAPGQKVTISCSGSSSNIGNNYVSWYQQLPGTAPKLLIYDNNKRPSGIPDRFSGSKSGTSATLGITGLQTGDEADYYCGTWDSSLSAWVFGGGTKLT
notes: Human IgG from a mammalian expression vector in CHO cells; also called heavy chain H23499
With B3 the Kd [6] was 3.9 nM, the “EC50 (read off the curve)” value (Human CCR8-ECD-Fc [7]) was about 0.03 mg/L and the “EC50 (read off the curve)” value (Cynomolgus CCR8-ECD-Fc [8]) was about 0.03 mg/L. The Kd [9] was 2.5 nM, the “EC50 (read off the curve)” value [10] was about 1 mg/L and the “EC50 (read off the curve)” value [11] was about 0.4 mg/L.

B4: anti-CCR8-2-8 (antibody, V domains shown)
VH: EVQLVESGGGLVQPGRSLRLSCAASGFTFDDYAMHWVRQAPGKGLEWVSGISWNSGSIGYADSVKGRFTISRDNSKNSLYLQMNSLRAEDTALYYCARGRRSYRDSLRFDYWGQGTLVTVSS
VL: QSVLTQPPSVSGAPGQRVTISCTGSGSNIGNNYVSWYQQLPGTAPKMLIYDNTRRPSGIPDRFSGSKSDTSATLGITGLQTGDEADYYCGAWDSSLRMWVFGGGTKLTVL
notes: Human IgG
B4 was tested, and the “EC50 (read off the curve)” value [12] was about 1 mg/L, the Kd [6] was 2.5 nM and the “EC50 (read off the curve)” value (Cynomolgus CCR8-ECD-Fc [13]) was about 0.04 mg/L. The Kd [9] was 1.5 nM, the “EC50 (read off the curve)” value (Human CCR8-ECD-Fc [14]) was about 0.04 mg/L and the “EC50 (read off the curve)” value [15] was about 0.4 mg/L.

B5: anti-CCR8-2-10 (antibody, V domains shown)
VH: EVQLVESGGGLVQPGRSLRLSCAASGFTFDDYAMHWVRQAPGKGLEWVSGISWNSGSIGYADSVKGRFTISRDNSKNSLYLQMNSLRAEDTALYYCARGRKSYRDSLRFDYWGQGTLVTVSS
VL: QSVLTQPPSVSAAPGQKVTISCSGTSSNIGKNFVSWYQQLPGTAPKLLIYDDNKRPSGIPDRFSGSKSATSATLGITGLQTGDGADYYCGTWDSSLSAWVFGGGTKLTVL
notes: Human IgG
For B5, the Kd [6] was 3.9 nM, the Kd [9] was 2.4 nM and the “EC50 (read off the curve)” value [16] was about 0.6 mg/L. For the same molecule, the “EC50 (read off the curve)” value (Human CCR8-ECD-Fc [17]) was about 0.04 mg/L and the “EC50 (read off the curve)” value (Cynomolgus CCR8-ECD-Fc [18]) was about 0.04 mg/L.

B6: anti-CCR8-2-9 (antibody, V domains shown)
VH: EVQLVESGGGLVQPGRSLRLSCAASGFTFDDYAMHWVRQAPGKGLEWVSGISWNSGSIGYADSVKGRFTISRDNSKNSLYLQMNSLRAEDTALYYCARGRKSYRDSLRFDYWGQGTLVTVSS
VL: QSVLTQPPSVSGAPGQRVTISCTGSGSNIGNNYVSWYQQLPGTAPKMLIYDNTRRPSGIPDRFSGSKSDTSATLGITGLQTGDEADYYCGAWDSSLRMWVFGGGTKLTVL
notes: Human IgG
With B6 the Kd [6] was 3.2 nM, the “EC50 (read off the curve)” value (Cynomolgus CCR8-ECD-Fc [19]) was about 0.04 mg/L and the Kd [9] was 1.5 nM. The “EC50 (read off the curve)” value [20] was about 0.4 mg/L, the “EC50 (read off the curve)” value (Human CCR8-ECD-Fc [21]) was about 0.04 mg/L and the “EC50 (read off the curve)” value [22] was about 0.4 mg/L.

B7: anti-CCR8-2-7 (antibody, V domains shown)
VH: EVQLVESGGGLVQPGRSLRLSCAASGFTFDDYAMHWVRQAPGKGLEWVSGISWNSGSIGYADSVKGRFTISRDNSKNSLYLQMNSLRAEDTALYYCARGRDSYRKSLRFDYWGQGTLVTVSS
VL: QSVLTQPPSVSGAPGQRVTISCTGSGSNIGNNYVSWYQQLPGTAPKMLIYDNTRRPSGIPDRFSGSKSDTSATLGITGLQTGDEADYYCGAWDSSLRMWVFGGGTKLTVL
notes: Human IgG
B7 was tested, and the Kd [6] was 3.5 nM, the “EC50 (read off the curve)” value [23] was about 0.4 mg/L and the Kd [9] was 1.3 nM. For the same molecule, the “EC50 (read off the curve)” value [24] was about 1 mg/L, the “EC50 (read off the curve)” value (Cynomolgus CCR8-ECD-Fc [25]) was about 0.04 mg/L and the “EC50 (read off the curve)” value (Human CCR8-ECD-Fc [26]) was about 0.04 mg/L.
